Source: US20070105771A1 (Y S THERAPEUTICS, published 2007)

What was measured:
[1] = biological target: T1, Purified recombinant human CD26 (rhDipeptidyl peptidase IV), R&D Systems CAT #1180-SE (human, UniProt P27487 29-766); assay: SPR (Biacore), IgG1
T1 construct: Bought recombinant protein; also called hu-CD26; soluble human CD26
Procedure: Fabs produced in E. coli as described below were diluted in PBS in a concentration of ˜0.5 μM for the assay. A typical recording included a 3 minute period of injection of the Fab followed by a period of 15 minutes of dissociation, and analysis was performed based on the raw data of the binding curves accordingly.
Analyses thereof were performed using Biacore® as described in Example 1, excepting the binding partners were the rhuMAbs noted above.

[2] = biological target: T1, Purified recombinant human CD26 …; assay: SPR (Biacore)

T1 sequence (P27487 29-766 limits assumed): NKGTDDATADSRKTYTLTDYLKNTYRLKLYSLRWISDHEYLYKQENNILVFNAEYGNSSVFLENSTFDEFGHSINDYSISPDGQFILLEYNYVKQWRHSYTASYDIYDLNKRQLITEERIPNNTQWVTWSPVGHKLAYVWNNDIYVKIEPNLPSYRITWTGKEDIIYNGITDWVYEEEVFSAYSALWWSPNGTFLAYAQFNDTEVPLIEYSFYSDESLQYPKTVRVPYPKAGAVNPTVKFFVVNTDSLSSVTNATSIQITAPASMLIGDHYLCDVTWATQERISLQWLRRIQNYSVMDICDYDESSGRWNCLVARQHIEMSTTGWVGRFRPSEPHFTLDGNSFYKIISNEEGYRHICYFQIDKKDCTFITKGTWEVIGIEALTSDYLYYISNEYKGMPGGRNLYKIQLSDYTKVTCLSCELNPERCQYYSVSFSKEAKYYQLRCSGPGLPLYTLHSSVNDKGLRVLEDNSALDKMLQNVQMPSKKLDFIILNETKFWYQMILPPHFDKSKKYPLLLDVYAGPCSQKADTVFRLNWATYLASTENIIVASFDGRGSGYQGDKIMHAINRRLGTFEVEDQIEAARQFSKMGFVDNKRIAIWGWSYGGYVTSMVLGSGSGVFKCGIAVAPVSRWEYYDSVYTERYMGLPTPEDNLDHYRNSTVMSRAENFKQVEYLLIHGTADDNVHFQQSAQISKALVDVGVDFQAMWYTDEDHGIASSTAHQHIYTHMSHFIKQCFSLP

-fold against rhuMAb 409 [1]: 3.7 | Kd [1]: 0.22 nM | Kd [2]: 0.244 nM | koff [2]: 6.63e-05 s⁻¹ | kon [2]: 272000 M⁻¹ s⁻¹
B1: rhuMAb 411 (antibody, human IgG1, kappa, V domains shown)
VH: EVQLVESGAGVKQPGGTLRLTCTASGFSLTTYGVHWVRQAPGKGLEWVGVIWGDGRTDYDAAFMSRVTISKDTSKSTVYLQMNSLRAEDTAVYYCMRNRHDWFDYWGQGTTVTVSS
VL: DILLTQSPSSLSATPGERATITCRASQGIRNNLNWYQQKPGQAPRLLIYYSSNLQSGVPSRFSGSGSGTDFTLTISRLQPEDVAAYYCQQSIKLPFTFGSGTKVEIKR
notes: also called X411
